B1: human Cavin-1 (other, UniProt Q6NZI2 1-390, looked up)
chain: MEDPTLYIVERPLPGYPDAEAPEPSSAGAQAAEEPSGAGSEELIKSDQVNGVLVLSLLDKIIGAVDQIQLTQAQLEERQAEMEGAVQSIQGELSKLGKAHATTSNTVSKLLEKVRKVSVNVKTVRGSLERQAGQIKKLEVNEAELLRRRNFKVMIYQDEVKLPAKLSISKSLKESEALPEKEGEELGEGERPEEDAAALELSSDEAVEVEEVIEESRAERIKRSGLRRVDDFKKAFSKEKMEKTKVRTRENLEKTRLKTKENLEKTRHTLEKRMNKLGTRLVPAERREKLKTSRDKLRKSFTPDHVVYARSKTAVYKVPPFTFHVKKIREGQVEVLKATEMVEVGADDDEGGAERGEAGDLRRGSSPDVHALLEITEESDAVLVDKSDSD
notes: whole, on cells; Endogenous protein in cell extracts, or full-length cDNA expressed from pCMV-puro in COS-7 cells for IP-WB; also called Cavin-1-WT; pCMVpuro-Cavin-1
B2: human Caveolin 1 (CAV1) (other, UniProt Q03135 2-178, looked up)
chain: SGGKYVDSEGHLYTVPIREQGNIYKPNNKAMADELSEKQVYDAHTKEIDLVNRDPKHLNDDVVKIDFEDVIAEPEGTHSFDGIWKASFTTFTVTKYWFYRLLSALFGIPMALIWGIYFAILSFLHIWAVVPCIKSFLIEIQCISRVYSIYVHTVCDPLFEAVGKIFSNVRINLQKEI
notes: whole, on cells; Endogenous protein in cell extracts, or full-length cDNA expressed from pCMV-puro in COS-7 cells for IP-WB; also called CAV1-WT; pCMVpuro-CAV1
B3: Cavin-2 (other, human, UniProt O95810 2-425, looked up)
chain: GEDAAQAEKFQHPGSDMRQEKPSSPSPMPSSTPSPSLNLGNTEEAIRDNSQVNAVTVLTLLDKLVNMLDAVQENQHKMEQRQISLEGSVKGIQNDLTKLSKYQASTSNTVSKLLEKSRKVSAHTRAVKERMDRQCAQVKRLENNHAQLLRRNHFKVLIFQEENEIPASVFVKQPVSGAVEGKEELPDENKSLEETLHTVDLSSDDDLPHDEEALEDSAEEKVEESRAEKIKRSSLKKVDSLKKAFSRQNIEKKMNKLGTKIVSVERREKIKKSLTSNHQKISSGKSSPFKVSPLTFGRKKVREGESHAENETKSEDLPSSEQMPNDQEEESFAEGHSEASLASALVEGEIAEEAAEKATSRGSNSGMDSNIDLTIVEDEEEESVALEQAQKVRYEGSYALTSEEAERSDGDPVQPAVLQVHQTS
notes: whole, on cells; Detected with anti-Cavin-2 (Abcam) in IP-WB of cell extracts

The target of experiment [1] is T1, human ROR1 (receptor tyrosine kinase-like orphan receptor 1) (human, UniProt Q01973 30-937).
T1 construct: whole, on cells; also called ROR1-WT; endogenous ROR1
T1 sequence (Q01973 30-937): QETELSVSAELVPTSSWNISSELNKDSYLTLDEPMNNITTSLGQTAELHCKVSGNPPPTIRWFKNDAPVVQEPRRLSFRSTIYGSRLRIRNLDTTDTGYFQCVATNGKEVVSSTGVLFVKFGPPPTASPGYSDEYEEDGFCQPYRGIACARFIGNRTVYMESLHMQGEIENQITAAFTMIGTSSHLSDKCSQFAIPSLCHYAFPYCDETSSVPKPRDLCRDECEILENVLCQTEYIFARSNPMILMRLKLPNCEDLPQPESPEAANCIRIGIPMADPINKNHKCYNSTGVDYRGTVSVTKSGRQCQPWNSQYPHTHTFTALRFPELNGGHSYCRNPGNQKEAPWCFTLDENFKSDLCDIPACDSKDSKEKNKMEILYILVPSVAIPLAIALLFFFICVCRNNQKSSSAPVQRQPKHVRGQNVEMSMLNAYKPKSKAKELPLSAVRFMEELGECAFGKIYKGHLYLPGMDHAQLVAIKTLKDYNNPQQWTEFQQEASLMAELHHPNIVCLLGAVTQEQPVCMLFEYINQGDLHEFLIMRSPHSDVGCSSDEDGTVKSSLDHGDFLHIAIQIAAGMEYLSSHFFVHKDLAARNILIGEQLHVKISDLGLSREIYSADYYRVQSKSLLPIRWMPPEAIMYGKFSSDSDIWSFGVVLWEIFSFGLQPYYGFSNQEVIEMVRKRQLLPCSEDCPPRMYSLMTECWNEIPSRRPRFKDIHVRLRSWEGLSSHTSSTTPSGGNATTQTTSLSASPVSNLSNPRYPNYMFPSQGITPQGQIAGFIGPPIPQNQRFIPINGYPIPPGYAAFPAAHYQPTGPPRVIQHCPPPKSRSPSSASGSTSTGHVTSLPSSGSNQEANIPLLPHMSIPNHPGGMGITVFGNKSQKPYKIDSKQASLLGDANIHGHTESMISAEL
The experiment can be described thus: IP-WB of octyl glucoside cell extracts, NCI-H1975 and SK-LU-1.

The experiment “human Cavin-1” deals with B1. Description: legend of FIG. 4(6): IP-WB.
Experiment [2] concerns the target T1, human ROR1 (receptor tyrosine …). Description: legend of FIGS. 4(3) and (4): IP-WB, NCI-H1975 and SK-LU-1.

In the case of B1, the binding result in experiment [1] is “binds”.

Regarding B2, the binding result (in the experiment with human Cavin-1; in experiment [2]) was “binds” throughout.

As to B3, in experiment [1], the binding result is listed as “no binding”.

The values are drawn from patent EP3211087A1 (National University Corporation Nagoya University, dated 2017).
